In publication PMC5155159:

How the values were obtained:
[1] = biological target: T1, Dicer TN (catalytically inactive), without ectopic TRBP;TRBP full length (D1-D2-D3) (UniProt Q9UPY3+Q15633); assay: single-molecule TIRF, two-color; details: amine-modified U69 (dye), 20 mM Tris pH 8.0, 200 mM KCl, 0.2 mM EDTA, glucose oxidase/catalase oxygen scavenger, 1 mM Trolox, 200 pM labelled RNA (200 nM in Methods), Mg2+ where …
[2] = biological target: Dicer TN (catalytically inactive), without ectopic TRBP (UniProt Q9UPY3); assay: single-molecule TIRF competition; details: 1 uM competitor tRNA; WT or TN form not given; amine-modified U69 (dye); 20 mM Tris pH 8.0, 200 mM KCl, 0.2 mM EDTA, glucose oxidase/catalase oxygen scavenger, 1 mM Trolox; 200 pM labelled RNA (200 nM in Methods); Mg2+ where …
[3] = biological target: Dicer TN (catalytically inactive), without ectopic TRBP;TRBP D3 (UniProt Q9UPY3+Q15633); assay: single-molecule TIRF competition; details: 1 uM competitor tRNA; WT or TN form not given; amine-modified U69 (dye); 20 mM Tris pH 8.0, 200 mM KCl, 0.2 mM EDTA, glucose oxidase/catalase oxygen scavenger, 1 mM Trolox; 200 pM labelled RNA (200 nM in Methods); Mg2+ where …
[4] = biological target: Dicer TN (catalytically inactive), without ectopic TRBP;TRBP D2-D3 (UniProt Q9UPY3+Q15633); assay: single-molecule TIRF competition; details: 1 uM competitor tRNA; WT or TN form not given; amine-modified U69 (dye); 20 mM Tris pH 8.0, 200 mM KCl, 0.2 mM EDTA, glucose oxidase/catalase oxygen scavenger, 1 mM Trolox; 200 pM labelled RNA (200 nM in Methods); Mg2+ where …
[5] = biological target: T1, Dicer TN (catalytically inactive), without ectopic TRBP;TRBP full length (D1-D2-D3); assay: single-molecule TIRF competition; details: 1 uM competitor tRNA; WT or TN form not given; amine-modified U69 (dye); 20 mM Tris pH 8.0, 200 mM KCl, 0.2 mM EDTA, glucose oxidase/catalase oxygen scavenger, 1 mM Trolox; 200 pM labelled RNA (200 nM in Methods); Mg2+ where …
[6] = biological target: Dicer TN (catalytically inactive), without ectopic TRBP (UniProt Q9UPY3); assay: single-molecule TIRF; details: amine-modified U69 (dye), 20 mM Tris pH 8.0, 200 mM KCl, 0.2 mM EDTA, glucose oxidase/catalase oxygen scavenger, 1 mM Trolox, 200 pM labelled RNA (200 nM in Methods), Mg2+ where …
TRBP recombinant = biological target: T2, TRBP recombinant (UniProt Q15633); assay: single-molecule TIRF; details: amine-modified U69 (dye), 20 mM Tris pH 8.0, 200 mM KCl, 0.2 mM EDTA, glucose oxidase/catalase oxygen scavenger, 1 mM Trolox, 200 pM labelled RNA (200 nM in Methods), Mg2+ where …
T2 sequence: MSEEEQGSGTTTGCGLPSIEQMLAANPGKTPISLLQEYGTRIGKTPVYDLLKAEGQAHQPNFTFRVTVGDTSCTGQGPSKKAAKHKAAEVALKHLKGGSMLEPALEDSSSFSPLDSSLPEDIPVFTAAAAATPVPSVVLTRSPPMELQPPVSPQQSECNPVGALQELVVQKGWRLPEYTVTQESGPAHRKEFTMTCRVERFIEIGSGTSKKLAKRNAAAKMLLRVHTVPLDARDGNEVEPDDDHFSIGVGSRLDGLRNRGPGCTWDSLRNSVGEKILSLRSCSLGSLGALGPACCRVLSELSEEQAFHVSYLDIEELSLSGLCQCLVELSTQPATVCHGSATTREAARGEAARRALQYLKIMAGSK

[7] = biological target: T1, Dicer TN (catalytically inactive), without ectopic TRBP;TRBP full length (D1-D2-D3); assay: single-molecule TIRF; details: amine-modified U69 (dye), 20 mM Tris pH 8.0, 200 mM KCl, 0.2 mM EDTA, glucose oxidase/catalase oxygen scavenger, 1 mM Trolox, 200 pM labelled RNA (200 nM in Methods), Mg2+ where …
[8] = equivalent IP amount, WT or TN form not given

UGAGGUAGUAGGUUGUAUAGUUUUAGGGUCACACCCACCACUGGGAGAUAACUAUACAAUCUACUGUCUUUC [pre-let-7a-1 3' 1nt]
binding signal (binding events) ([1]; 2.9x fewer than N1, 55.6% long, 25.3 +/- 2.9 s, short 3.7 +/- 0.8 s): 2750

UGAGGUAGUAGGUUGUAUAGUUUUAGGGUCACACCCACCACUGGGAGAUAACUAUACAAUCUACUGUCUUUCU [pre-let-7a-1 3' 2nt (standard)]
binding signal (% inhibition of binding) [2]: 77.9
binding signal (% inhibition of binding) [3]: 83
binding signal (% inhibition of binding) [4]: 29
binding signal (% inhibition of binding) [5]: 6.1
binding signal (s (long dwell time)) ([6]; 43.1% long, short 2.8 +/- 0.7 s, 56.9%, panel assignment from figure order): 21.9
binding signal (bound spots per field) [6, 8]: 58
binding signal (s (dwell time)) (TRBP recombinant; 200 pM RNA): 120
binding signal (s (long dwell time)) ([7]; 48.1% long, short 1.5 +/- 0.4 s, 51.9%): 13.9
binding signal (bound spots per field) [7, 8]: 781
binding signal (binding events) ([1]; with N2 at equal concentration, 57.7% long binding): 7410
binding signal (s (long dwell time)) ([1]; with N3, 54.7% long, short 1.4 +/- 0.3 s): 17
binding signal (binding events) ([1]; with N4, long 19.1 s, short 3.0 +/- 1.05 s, 54.0%): 8050

UGAGGUAGUAGGUUGUAUAGUUUUAGGGUCACACCCACCACUGGGAGAUAACUAUACAAUCUACUGUCUUUCU [pre-let-7a-1 3' 2nt-biotin]
binding signal (binding events) ([6]; five times more than Dicer-TRBP, 56.7% long, 34.0 +/- 5.6 s, 3'-biotin): 1780
binding signal (s (dwell time)) (TRBP recombinant; no noticeable difference from N1, 3'-biotin): 120
binding signal (binding events) ([7]; 14.2% long, 27.8 +/- 2.2 s, short 3.7 +/- 1.3 s, 85.8%, 3'-biotin): 341
binding signal (binding events) ([1]; 3'-biotin): 2340

UGAGGUAGUAGGUUGUAUAGUUUUAGGGUCACACCCACCACUGGGAGAUAACUAUACAAUCUACUGUCUUUCUUUUUUUUUUUUUUUUUUUUUUUUUUUUUUUUUUUUUUUUUUUUUUUUU [pre-let-7a-1 3' U49]
binding signal (s (dwell time)) (TRBP recombinant; no difference from N1): 120
binding signal (binding events) ([1]; 2.5x fewer than N1, 31.0% long, 11.0 +/- 2.3 s, short 1.2 +/- 0.2 s): 2040
